Data on six molecules can be found in publication PMC10397247.

What all share (experiment): two-hybrid library CCmax;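 also: natural log of median RNA to DNA barcode read ratio; higher means stronger binding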
The target of assay [1] is T1, Core_NNNN-es_KEKK.
T1 chain: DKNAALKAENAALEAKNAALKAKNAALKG
The note with it: mean of both orientations.

Assay [2] concerns the target T2, Core_NNNI-es_KEEE.
T2 chain: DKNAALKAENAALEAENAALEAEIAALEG
The note with it: mean of both orientations.

Assay [3] addresses T3, Core_NNII-es_KKKE.
T3 chain: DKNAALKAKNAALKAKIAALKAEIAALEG
The note with it: mean of both orientations.

In assay [4] the target is T4, Core_IIIN-es_EKEE.
T4 chain: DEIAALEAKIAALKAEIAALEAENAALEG
The note with it: mean of both orientations.

For assay [5], the target named is T5, 4H481-AA.
T5 chain: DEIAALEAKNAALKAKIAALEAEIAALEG
The note with it: mean of both orientations.

The target of assay [6] is T6, 4H662-AA.
T6 chain: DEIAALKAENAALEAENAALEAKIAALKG
The note with it: mean of both orientations.

In assay [7] the target is T7, 4H2726-AA.
T7 chain: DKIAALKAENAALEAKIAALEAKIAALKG
Particulars: mean of both orientations.

The target of assay [8] is T8, 4H3605-AA.
T8 chain: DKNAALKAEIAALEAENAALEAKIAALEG
Particulars: mean of both orientations.

Assay [9] has as its target T9, 4H2608-AA.
T9 chain: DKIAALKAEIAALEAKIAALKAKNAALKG

In assay [10] the target is T10, 4H369-AA.
T10 chain: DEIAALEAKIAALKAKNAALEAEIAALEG

In assay [11] the target is T11, 4H3664-AA.
T11 chain: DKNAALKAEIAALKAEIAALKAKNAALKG
The note with it: mean of both orientations.

Assay [12] deals with T12, 4H4033-AA.
T12 chain: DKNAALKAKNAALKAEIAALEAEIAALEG
The note with it: mean of both orientations.

The target in assay [13] is T13, 4H2935-AA.
T13 chain: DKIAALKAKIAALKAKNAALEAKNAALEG
The note with it: mean of both orientations.

Assay [14] concerns the target T14, 4H2614-AA.
T14 chain: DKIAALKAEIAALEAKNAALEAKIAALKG
Particulars: mean of both orientations.

For assay [15], the target named is T15, 4H3922-AA.
T15 chain: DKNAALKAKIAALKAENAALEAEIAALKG
The note with it: mean of both orientations.

Assay [16] concerns the target T16, 4H327-AA.
T16 chain: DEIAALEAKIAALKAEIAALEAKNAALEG
Particulars: mean of both orientations.

For assay [17], the target named is T17, 4H55-AA.
T17 chain: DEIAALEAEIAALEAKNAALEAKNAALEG
The note with it: mean of both orientations.

Assay [18] deals with T18, 4H3625-AA.
T18 chain: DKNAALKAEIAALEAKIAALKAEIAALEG
Particulars: mean of both orientations.

Assay [19] deals with T19, Core_NINN-es_KEEK.
T19 chain: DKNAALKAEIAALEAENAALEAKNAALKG
Particulars: mean of both orientations.

The target of assay [20] is T20, P2-AA.
T20 chain: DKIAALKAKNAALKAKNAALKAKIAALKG
The note with it: mean of both orientations.

In assay [21] the target is T21, P2-AA-1HGe-S.
T21 chain: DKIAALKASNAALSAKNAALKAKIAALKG
Particulars: mean of both orientations.

In assay [22] the target is T22, P2-AA-1HGe-A.
T22 chain: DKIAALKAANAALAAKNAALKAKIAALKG
The note with it: mean of both orientations.

Assay [23] deals with T23, P2-AA-1HGe-M.
T23 chain: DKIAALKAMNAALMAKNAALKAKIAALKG
Particulars: mean of both orientations.

Assay [24] concerns the target T24, P2-AA-1HGe-D.
T24 chain: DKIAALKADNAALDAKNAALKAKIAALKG
Particulars: mean of both orientations.

For assay [25], the target named is T25, P2-AA-1HGe-T.
T25 chain: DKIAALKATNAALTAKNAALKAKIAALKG
The note with it: mean of both orientations.

Assay [26] deals with T26, P2-AA-1HGe-Q.
T26 chain: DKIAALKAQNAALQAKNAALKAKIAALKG
The note with it: mean of both orientations.

Consider DENAALEAKNAALKAENAALEAENAALEG [Core_NNNN-es_EKEE], for which the interaction score in [1] was found to be 0.346.

In the case of DENAALEAKNAALKAKNAALKAKIAALKG [Core_NNNI-es_EKKK], in [2], the interaction score is 1.91.

Molecule DENAALEAENAALEAEIAALEAKIAALKG [Core_NNII-es_EEEK] registered an interaction score in assay [3] of 2.42.

For the molecule DKIAALKAEIAALEAKIAALKAKNAALKG [4H2608-AA], the interaction score was 1.53 in assay [4]; 1.33 in [5]; -1.55 in assay [6]; -0.998 in assay [7]; -0.648 in [8]; -0.193 in [9]. Besides, the interaction score in assay [10] is 0.124; in [11] it was -0.787; in assay [12], -0.845; in assay [13], -0.712; in assay [14] it was -0.644; in [15] it was -1.39. The interaction score is 1.83 in assay [16], -0.255 in assay [17] and 1.92 in [18].

Turning to DENAALEAKIAALKAKNAALKAENAALEG [Core_NINN-es_EKKE], the interaction score in [19] is 1.86.

As to DEIAALEAANAALAAENAALEAEIAALEG [P1-AA-1HGe-A], the interaction score in assay [20] was found to be 1.57; in assay [21], 2.24; in assay [22], 1.85; in assay [23] it was 2.12; in assay [24] it was 1.82; in [25], 1.54. Further, the interaction score in assay [26] stood at 1.88.
